Data: the DeepSol protein solubility set

Experiment: soluble on expression in E. coli; label from the status in PepcDB or PDB records

Sequence | soluble on expression in E. coli
MFKKLSVLALAMIISLSITACNSKENKANDESNTKVTTADDSKEKETLFVYSGAGLKKPMDEIAKKFEKENNVKVEYSYAGSAQLIAQIETSHKGDVFIVGSEPIYSKAFEKELVGEHKTVAHHTPAIVVPKGNPANIQKLEDLNKDGVKLILGDKESNAIGKTTQKILEKNNLKSINDNVVSTAATVNEMIVQLTSSKADATIATKDSVFGNEDVEVIEIAQDKNIDQLISAGIVNYSDKKDLANKFINYIESDEAKQIFKKYGFEPVK | not soluble
PDEKIVRIHSSSGTTGSPVIIPYTQKDVDVWSEMMMRCYQMAGVTNNDRVHITPGYGLWTAGIGFQLGAERLGAMAIPMGPGNTEKQLQMMVDLKSTVLTSTSSYALLLAEEIRKKGIQDKIHLKIGVIGSERWSEKMRNRIESELGIKSFDIYGLTEIYGPGIALDCEYHEGMHYW | not soluble
MGSDKIHHHHHHMKLLLTRPEGKNAAMASALDALAIPYLVEPLLSVEAAAVTQAQLDELSRADILIFISTSAVSFATPWLKDQWPKATYYAVGDATADALALQGITAERSPADSQATEGLLTLPSLEQVSGKQIVIVRGKGGREAMADGLRLRGANVSYLEVYQRACPPLDAPASVSRWQSFGIDTIVVTSGEVLENLINLVPKDSFAWLRDCHIIVPSARVETQARKKGLRRVTNAGAANQAAVLDALGM | not soluble
MSSECDGGSKAVMNGLAPGSNGQDKDMDPTKICTGKGAVTLRASSSYRETPSSSPASPQETRQHESKPGLEPEPSSADEWRLSSSADANGNAQPSSLAAKGYRSVHPNLPSDKSQDSSPLLNEVSSSLIGTDSQAFPSVSKPSSAYPSTTIVNPTIVLLQHNREQQKRLSSLSDPVSERRVGEQDSAPTQEKPTSPGKAIEKRAKDDSRRVVKSTQDLSDVSMDEVGIPLRNTERSKDWYKTMFKQIHKLNRDDDSDLYSPRYSFSEDTKSPLSVPRSKSEMSYIDGEKVVKRSATLPLPARSSSLKSSSERNDWEPPDKKVDTRKYRAEPKSIYEYQPGKSSVLTNEKMSRDISPEEIDLKNEPWYKFFSELEFGKPTNLDKDLSLCQTELEADLEKMETLNKAPSANVPQSSAISPTPEISSETPGYIYSSNFHAVKRESDGAPGDLTSLENERQIYKSVLEGGDIPLQGLSGLKRPSSSASTKVHSRTFNTSNALGPVCKHKKPLSAAKACISEILPSKFKPRLSAPSALLQEQKSILLPSEKAQSCENLCVSGSLNDSKRGLPLQVGGSIENLLMRSRRDYDSKSSSTMSLQEYSTSGRRPCPLSRKAGMQFTMLYRDMHQINRSGLFLGSISSSSSVRDLASHFEKSSLALSRGELGPSQEGSEHIPKHTVSSRITAFEQLIQRSRSMPSLDLSGRLSKSPTPVLSRGSLTSARSAESLLESTKLHPKEMDGMNSSGVYASPTCSNMAHHALSFRGLVPSEPLSTCSDDVDRCSNISTDSREGSGGSVHGDFPKHRLNKCKGTCPASYTRFTTIRKHEQQQTSRQPEWRLDARGDKSTLLRNIYLMSPLPFRLKKPLHHHPRQPSPGDSSGLLVGQKPDLPSQPHQDQPPSGGKPVVPTRLSSRHTMARLSRSSEPSQERPTALEDYPRAINNGNSVPYSDHSLDRNNNPQSELAPSRGDSESPRHFIPADYLESTEEFIRRRHDDKEMRPARAKFDFKAQTLKELPLQKGDIVYIYKQIDQNWYEGEHHGRVGIFPRTYIELLPPAEKAQPKKLTPVQVLEYGEAIAKFNFNGDTQVEMSFRKGERITLLRQVDENWYEGRIPGTSRQGIFPITYVDVIKRPLVKNPVDYMDLPFSSSPSRSATASPQQPQAQQRRVTPDRSQTSQDLFSYQALYSYIPQNDDELELRDGDIVDVMEKCDDGWFVGTSRRTKQFGTFPGNYVKPLYL | soluble
MNDKQYQEIASLLERLSRNNAMSIYGDWIKNSFSKELIASISVLTHNDLKILDSLFKQDLSISDVVSRTGLSQGGVSRRVNMMSEKGIIHKYQNDKNKKTVFLKLNPIGQELFDFHRKLHDHIKEIFFQKTQRFNEEQIRVVISFLEAILT | soluble
MTGRTGGNGSTQAQPERVMLVGVMLDKDGTGSSAARLNGFQTALAEAVELVKAAGGDSVRVETAKRDRPHTALFVGTGKAAELSEAVAADGIDLVVFNHELTPTQERNLEKELKCRVLDRVGLILAIFARRARTQEGRLQVELAQLSHLAGRLIRGYGHLQSQRGGIGMKGPGETKLETDRRLIAHRINALKKQLANLKKQRALRRKSRESGTIKTFALVGYTNVGKSSLFNRLTKSGIYAKDQLFATLDTTARRLYISPECSIILTDTVGFVSDLPHKLISAFSATLEETAQADVLLHVVDAAAPNSGQQIEDVENVLQEIHAGDIPCIKVYNKTDLLPSEEQNTGIWRDAAGKIAAVRISVAENTGIDALREAIAESCAAAPNTDETEMPLEHHHHHH | soluble
MALVKEVLVVLNRLSPFELQESWDNSGLNVGSENSEFSEIVACLEITLKIALNAPQNALIITHHPLIFKPLKTLNDEIYPGNILKILIQKNVSVISMHTNFDKTHLNKHFAHALLEFDGLVEKGLMLVKENANIEFDALVKKIKSSLGVGSLACVKSSQTIKDLAFVCGSGASMFSSLKAQSCLITGDVKYHDAMIAQSLGISLIDATHYYSERGFALIVAEILHSFNYLVTIENFKNPLQIILEHHHHHH | soluble
MIEIKDKQLTGLRFIDLFAGLGGFRLALESCGAECVYSNEWDKYAQEVYEMNFGEKPEGDITQVNEKTIPDHDILCAGFPCQAFSISGKQKGFEDSRGTLFFDIARIVREKKPKVVFMENVKNFASHDNGNTLEVVKNTMNELDYSFHAKVLNALDYGIPQKRERIYMICFRNDLNIQNFQFPKPFELNTFVKDLLLPDSEVEHLVIDRKDLVMTNQEIEQTTPKTVRLGIVGKGGQGERIYSTRGIAIGLSAYGGGIFAKTGGYLVNGKTRKLHPRECARVMGYPDSYKVHPSTSQAYKQFGNSVVINVLQYIAYNIGSSLNFKPY | soluble
MTKSLFRQSFLFDSLDLDHPMVAQTVRTEQGVTLKLHQRGVLEVIPAQTDAATKNMVISCGIHGDETAPMELLDKWIDDIVSGFQPVAERCLFIMAHPQATVRHVRFIEQNLNRLFDDKPHTPSTELAIADNLKVLLRQFFANTDEHSRWHLDLHCAIRGSKHYSFAVSPKARHPVRSRSLMQFIEQAHIEAVMLSNAPSSTFSWYSAEHYAAQALTLELGQVARLGENLLDRLLAFDLAMRDLISRHKPEHLPRKSVMYRVSRTIVRLHDDFDFRFSDDVENFTAFMHGEVFGHDGDKPLMAKNEGEAIVFPNRKVAIGQRAALMVCKVNTRYEDDQLVYDLEHHHHHH | soluble
MKDAQLNTLCQRHQAVLINSASNSITVAVVDAPSHALLDALHFATQKQIDIVCWTRQQMENHRHKPDQAPSANAAKGGETAAQLLNQTLRSAMAKRASDIHLEPGASRYRIRLRIDGVLHILQDIAKETGLALTARLKVLGNLDIAEHRLPQDGQFTVDLAGDSISFRIATLPCKEGEKVVLRLLHQVEQTLDLDTLGMYGAQLTAFRQALQQPQGLVLVTGPTGSGKTVTLYSALQTRNTPGINLCSVEDPIEIPLDGINQTQIHPRAGLTFQNVLRALLRQDPDIIMVGEIRDGDTAEIAIKAAQTGHLVLSTLHTNSTSETLIRLQQMGVARWMISSALTLVVAQRLVRKLCPHCKQRLSDPVVLSPNLWPSAIPRWQASGCQHCYHGFYGRTALFEVLTVTPALRQLIASGASAQALEAHLQQTGTGTLFENGCRAVEQGMTSFEEILCVLGMPHER | not soluble
MDKSSDAFRTISEVAELLELPQHVLRFWETRFKQIKPMKRGGGRRYYRPVDIDLLNGIKQLLYDQGYTIKGVQRLLKENGVAFVTAFGNGDLDAMNVVIEKKHGEQTSEVTSSKPKKSSFGLLSFMRNEVETSIGSVNVYKDKTDKALLQEILFELIECKRVLDRAR | not soluble
MAHHHHHHMNHVRHALDMDNEYTMVLDIGTIRRPAAQHRSESFMAASTTEWETKVERAERLSLLEGKKGCCYFSLYPEDVSAAFHEDAKSFPDVFSVEDAFVHCARLNLPMGEVAALLPAIPTETAEQVMHNLAEKCVIASPQSLAMTFLGEMSARLPVDLDIASFIIGGCNVGLGEAAVAIGSVAALPFRSITPLTYSSVPWNEATTWSREKYAGDIARHSDLLADTLVFIEWLKLRARGESTAEFLNTILVQEFKFVKIEGLMKYIREQLTNYVFLDRFDTLELLEDVSTSVQENSTIFLFLQAVALARRAAFIRDAGHLNEKDRYASMAFVRTSKRLMPHNYIPSSIKWDTGRILIPVILKNSTNILAGLFSLIHTPYFFASLLLLYPYVEYSKPVITDKGRVVYFGVSCNRQMKRFMVSIEEAAQILDFREKINLALSCMQALRTLSHPILKTKFLLILKKHDRLFDVERLHKNIRSQLLELVTELNVTEHQGSFETFATHCTAPKELLPMTDTPAMDVSVLRRFVDGTLWDSLPTPGSVVKPRAASFAGTPSTLPSAPLISTNDEDDDEEVEIIQDSYFMRHGPLIEDDDDD | not soluble
MPHDPGATRLLAISPHLDDAVLSFGAGLAQAAQDGANVLVYTVFAGAAQPPYSPAAQRMHTIWGLAPDDDAVLYRRKEDIAALDHLRVAHRHGRFLDSIYRKLPDGRWLTAHVEGRQKLAVNDHSPDSDHDLVGEVADDIRSIIDEFDPTLVVTCAAIGEHPDHEATRDAALFATHEKNVPVRLWEDLPYAVFKSGAVELPQGFRLGSADVSSVKPEMRSQKFQAVERYSSQMVLLNGSENNLFDRLDEHARQNAPHGGYGETTWPVVRSDDS | soluble
MSGFDLIIFDCDGVLVDSEIIAAQVESRLLTEAGYPISVEEMGERFAGMTWKNILLQVESEASIPLSASLLDKSEKLLDMRLERDVKIIDGVKFALSRLTTPRCICSNSSSHRLDMMLTKVGLKPYFAPHIYSAKDLGADRVKPKPDIFLHGAAQFGVSPDRVVVVEDSVHGIHGARAAGMRVIGFTGASHTYPSHADRLTDAGAETVISRMQDLPAVIAAMAEWEGAF | soluble
SLDLFISRHLEQLNSLSFKATPLFEHKAQFYAAPSYLEKYGTPQNVEELTKHNILIWGEKPAREIKTNRGKRMSLSGNFATTNPEALFHGAKRGMGILMTNNVMIKDDLKSGALVPILPDVTADEATVYAYYPKLDYQHTRTQLFLDYLKSRLEEEKRI | not soluble
MGAPLADILHALVLKIEDQRLGTHASVLLLSEDGKRVLTGAAPHLPDSYNQVIHGVEIGPEVGSCGTAAYTGQRVIVEDIEHHPYWALYKSFALVHGLRACWSEPIKDTQGKVLGTFAMYYKEIKSPTVADLTLIAEAARLASLAIERSRSLEFQRLAVKILEHHHHHH | soluble
MAHHHHHHMSGAGRKHRAKHLTQQYLDASGWVGPKEGERLAICMESPHGQHVRVLLLVHPNSAPASSSTEAPAPDGSSSSDAPHGAKESEAGVSASPPSAAPLLEVEQVVHLPRKFHKVIWLSIKDVVVIADGTVSFKPSPEQVESFLKDPRNKGWRERVATAQHRAEDQRAALQRMPHYAATAQTTTSVLTGPQVRSGVRATANGTSEQDSEGSEGEADDMRNPNWRNIKHQQHFFYGLGDDSDEIEEEEDA | not soluble
GSHMASTPDKFNDGNLNIAYAKPTTQSSVDYNGDPNRAVDGNRNGNFNSGSVTHTRADNPSWWEVDLKKMDKVGLVKIYNRTDAETQRLSNFDVILYDNNRNEVAKKHVNNLSGESVSLDFKEKGARYIKVKLLTSGVPLSLAEVEVFRES | soluble
MPDKKTLWMLNELEGFEKPKIKLEQYATSSELAVSMMEMIDETIGFEGKKLIDIGCGCGMLMTTAATMYELETVLGVDIDDEALKICSRNLETAEVQDRCELLQADILDPESDLPRGTFDVAVINPPFGTKNNAGIDMQFVQIGLQMVRPGGSVFSLHKSSTRDYILKNAKKWDGVGAECCAEMRWQLPATYKFHKQKAVDIAVDLIHFKKLDS | soluble
